Changes are numbered by the printed parent chain.
T1: TIGIT on cells (human primary T cells, PBMC, NK cells; Promega TIGIT effector cells) (human, UniProt Q495A1 22-244)
T1 sequence: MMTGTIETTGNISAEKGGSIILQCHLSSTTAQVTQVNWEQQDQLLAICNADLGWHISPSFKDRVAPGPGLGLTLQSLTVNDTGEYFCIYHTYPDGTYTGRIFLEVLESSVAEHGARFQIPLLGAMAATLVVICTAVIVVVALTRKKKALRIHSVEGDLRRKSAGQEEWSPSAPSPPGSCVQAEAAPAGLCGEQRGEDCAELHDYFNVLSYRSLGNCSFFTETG

T2: recombinant human TIGIT (Sino Biological) (human, UniProt Q495A1 22-138)
T2 construct: Bought protein; NP_776160.2; also called human TIGIT antigen; hTIGIT
T2 sequence: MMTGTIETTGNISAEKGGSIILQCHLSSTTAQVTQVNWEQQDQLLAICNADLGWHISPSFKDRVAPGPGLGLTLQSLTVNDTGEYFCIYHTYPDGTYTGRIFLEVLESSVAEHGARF

T3: recombinant human TIGIT (Acrobiosystems) (human, UniProt Q495A1 22-141)
T3 construct: Bought protein; also called hTIGIT; human TIGIT antigen
T3 sequence: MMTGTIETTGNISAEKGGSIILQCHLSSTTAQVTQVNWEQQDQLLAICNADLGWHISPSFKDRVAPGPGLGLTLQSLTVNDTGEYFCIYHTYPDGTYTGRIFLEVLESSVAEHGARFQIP

T4: TIGIT on cells (human primary T cells, PBMC, NK cells; Promega TIGIT effector cells) (human) (UniProt Q495A1)
T4 sequence: T1 sequence

B1: anti-TIGIT 7A6 VH3/Vk5 humanized antibody (human IgG1, kappa) (antibody, V domains shown)
VH: QVQLQESGPGLVKPSQTLSLTCTVTGYSITSDYAWNWIRQPPGKGLEWMGYISYSGSARYNPSLKSRVTISRDTSKNQFSLKLSSVTAEDTATYYCARKGYPAYFAYWGQGTLVTVSS
VL: DIQMTQSPSSLSASVGDRVSITCKASQDVSTAVAWYQQKPGQAPRLLIYSASYRYTGVPDRFSGSGSGTDFTLTISSLQPEDFATYYCQHHYSTPYTFGQGTKLEIKR
notes: also called VH3Vκ5; 7A6 VH3/Vk5-IgG1
B2: 7A6 VH0/Vκ0 chimeric antibody (human IgG1, kappa) (antibody, V domains shown)
VH: DVQLQESGPGLVKPSQSLSLTCTVTGYSITSDYAWNWIRQFPGNKLEWMGYISYSGSARYNPSLKSRISITRDTSMNQFFLQLNSVTAEDTATYYCARKGYPAYFAYWGQGTLVTVSS
VL: DIVMTQSHKFMSTSVGDRVSISCKASQDVSTAVAWYQQKPGQSPELLIYSASYRYTGVPDRFTGSGSGTDFTFTISSVQAEDLAVYYCQHHYSTPYTFGGGTKLEMKR
notes: Mouse 7A6 variable regions on human IgG1/kappa constant regions; also called VH0/Vk0; 7A6 VH0Vk0
B3: 7A6 VH4/Vκ5 humanized antibody (human IgG1, kappa) (antibody, V domains shown)
VH: B1 VH with E89A, T93V
VL: B1 VL
notes: Tested as IgG in supernatant of transiently transfected HEK293 EBNA cells
B4: 7A6 VH5/Vκ5 humanized antibody (human IgG1, kappa) (antibody, V domains shown)
VH: B1 VH with R72V, E89A, T93V
VL: B1 VL
notes: as for B3
B5: 7A6 VH5/Vκ4 humanized antibody (human IgG1, kappa) (antibody, V domains shown)
VH: B1 VH with R72V, E89A, T93V
VL: B1 VL with S20T, K24R, P80A, F83V, T85V
notes: as for B3
B6: 7A6 VH5/Vκ3 humanized antibody (human IgG1, kappa) (antibody, V domains shown)
VH: B1 VH with R72V, E89A, T93V
VL: B1 VL with P80A, F83V, T85V
notes: as for B3
B7: 7A6 VH5/Vκ2 humanized antibody (human IgG1, kappa) (antibody, V domains shown)
VH: B1 VH with R72V, E89A, T93V
VL: B1 VL with Q3V, S63T, P80A, F83V, T85V
notes: as for B3
B8: 7A6 VH5/Vκ1 humanized antibody (human IgG1, kappa) (antibody, V domains shown)
VH: B1 VH with R72V, E89A, T93V
VL: B1 VL with Q3V, P8H, S10F, R45E, S63T, P80A, F83V, T85V, I106M
notes: as for B3
B9: TIG1 Arcus (antibody, from another filing, V domains shown)
VH: DVQLVESGGGLVQPGGSRKLSCAASGFTFSNFGMHWVRQAPEKGLEWVAFISSGSSSIYYADTVKGRFTISRDNPKNTLFLQMTSLRSEDTAMYYCARMRLDYYAMDYWGQGTSVTVSS
VL: DVQITQSPSYLAASPGETITINCRASKSISKYLAWYQEKPGKTNKLLIYSGSTLQSGIPSRFSGSGSGTDFTLTISSLEPEDFAMYYCQQHNEYPWTFGGGTKLEIK

molecular target: T1, TIGIT on cells (human primary T cells, …); experiment: cell-based or functional assay

Row | EC50 of the mixture with pembrolizumab (both antibodies at the same concentration), NFAT reporter luminescence (PD-1+TIGIT+ effector cells + PD-L1+CD155 aAPC/CHO-K1 cells) [µg/mL] | Molecule
1 | 0.399 | B1

molecular target: T2, recombinant human TIGIT (Sino …); experiment: SPR single cycle kinetics; KD divided by KD of the VH0/Vκ0 chimeric antibody;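 note: biacore T200 SPR at 25 °C, IgG captured on anti-human chip, TIGIT analyte in four rising concentrations, 210 s association each, 900 s dissociation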
Method: (§1) The kinetic test was conducted at 25° C. using the Biacore T200 running Biacore T200 Control software V2.0.1 and Evaluation software V3.0 (GE Healthcare, Uppsala, Sweden).
(§2) To reduce non-specific binding to the reference surface, HBS-P+ (GE Healthcare, Uppsala, Sweden) supplemented with 1% BSA w/v (Sigma, Dorset, UK) was used as the running buffer and was also used for dilution of ligand and analyte. The supernatant containing IgG was diluted in the running buffer to 1 μg/mL. At the beginning of each cycle, the antibody was loaded onto Fc2, Fc3, and Fc4 on the anti-human sensor chip (GE Healthcare, Little Chalfont, UK). […] Then, the surface was allowed to stabilize.
(§3) To minimize potential mass transfer effects, recombinant human TIGIT (from Sino Biological) was used as the analyte and injected at a flow rate of 40 μl/min to obtain Single cycle kinetic data. […] For each of the four increasing antigen concentrations, the association phases were monitored for 210 seconds, and after the last antigen injection, a single dissociation phase was measured for 900 seconds. The sensor chip surface was regenerated by a single injection of 3 M MgCl₂.

Row | Relative KD | Molecule
2 | 1 | B2
3 | 1.41 | B3
4 | 1.92 | B4
5 | 2.33 | B5
6 | 2.32 | B6
7 | 2.55 | B7
8 | 1.32 | B8
9 | 1.34 | B1

molecular target: T2, recombinant human TIGIT (Sino …); experiment: SPR (Biacore T200), single cycle kinetics, IgG from supernatant captured on anti-human chip, TIGIT as analyte, 1:1 fit;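 note: measured at 25 °C in HBS-P+ with 1% BSA, four ascending TIGIT concentrations, 210 s association per step, one final 900 s dissociation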
Method: as §1, §2, §3

Row | Kd [pM] | koff [s⁻¹] | kon [M⁻¹ s⁻¹] | Molecule
10 | 652 | 0.0016 | 2.46e+06 | B2
11 | 922 | 0.00162 | 1.76e+06 | B3
12 | 1250 | 0.0017 | 1.36e+06 | B4
13 | 1520 | 0.00181 | 1.19e+06 | B5
14 | 1510 | 0.00189 | 1.25e+06 | B6
15 | 1660 | 0.00204 | 1.23e+06 | B7
16 | 858 | 0.00124 | 1.45e+06 | B8
17 | 871 | 0.00161 | 1.85e+06 | B1

molecular target: T3, recombinant human TIGIT (Acrobiosystems); experiment: SPR (Biacore T200), multi-cycle kinetics, purified IgG captured on anti-human IgG CM5 chip, TIGIT as analyte, 1:1 fit
Method: Kinetic experiments were performed at 25° C. using a Biacore T200 operated with Control software V2.0.1 and Evaluation software V3.0 (GE Healthcare, Uppsala, Sweden).
HBS-P+ (GE Healthcare, Uppsala, Sweden) supplemented with 1% BSA w/v (Sigma, Dorset, UK) was used as the running buffer and was also used for dilution of ligands and analytes. The purified leading antibodies were diluted in the running buffer to a final concentration of 1 μg/mL, and at the initiation of each cycle, were loaded onto Fc2, Fc3, and Fc4 sites on the anti-human IgG CM5 sensor chip (GE Healthcare, Little Chalfont, UK). The antibodies were captured at a flow rate of 10 μl/min until a response level (RL) of ˜150 RU was achieved, followed by a stabilization period.
To minimize potential mass transfer effects, recombinant human TIGIT (Acrobiosystems, China) was introduced as the analyte at a flow rate of 50 μl/min to obtain multi-cycle kinetic data. […] For each concentration, association phases were monitored for 240 seconds, followed by 900 seconds of monitoring the dissociation phase. The sensor chip surface was regenerated between kinetic cycles by injecting 3M MgCl₂ twice. To ensure the stability of both the surface and the analyte across kinetic cycles, repetitive injections of blank and a single concentration of the analyte were programmed into the kinetic run.

Row | Kd [pM] | koff [s⁻¹] | kon [M⁻¹ s⁻¹] | Molecule
18 | 77 | 0.000176 | 2.28e+06 | B2
19 | 86.7 | 0.000177 | 2.04e+06 | B1

molecular target: T4, TIGIT on cells (human primary T cells, PBMC, NK cells; Promega TIGIT effector cells) (human); experiment: not given

Row | EC50 of the mixture with pembrolizumab (both antibodies at the same concentration), NFAT reporter luminescence (PD-1+TIGIT+ effector cells + PD-L1+CD155 aAPC/CHO-K1 cells) [µg/mL] | Molecule
20 | 0.611 | B9

molecular target: T1, TIGIT on cells (human primary T cells, …); experiment: cell-based or functional assay; remark: another data set of the same source

Row | EC50 of the mixture with nivolumab (both antibodies at the same concentration), NFAT reporter luminescence (PD-1+TIGIT+ effector cells + PD-L1+CD155 aAPC/CHO-K1 cells) [µg/mL] | EC50 of the mixture with pembrolizumab (both antibodies at the same concentration), NFAT reporter luminescence (PD-1+TIGIT+ effector cells + PD-L1+CD155 aAPC/CHO-K1 cells) [µg/mL] | Molecule
21 | 0.594 | 0.38 | B1

molecular target: T1, TIGIT on cells (human primary T cells, …); experiment: cell-based or functional assay; remark: another data set of the same source

Row | EC50, NFAT reporter luminescence (TIGIT effector cells + CD155 aAPC/CHO-K1 cells; blocked ligand PVR/CD155) [µg/mL] | Molecule
22 | 0.521 | B1

molecular target: T1, TIGIT on cells (human primary T cells, …); experiment: cell-based or functional assay; remark: another data set of the same source

Row | EC50 of the mixture with nivolumab (both antibodies at the same concentration), NFAT reporter luminescence (PD-1+TIGIT+ effector cells + PD-L1+CD155 aAPC/CHO-K1 cells) [µg/mL] | Molecule
23 | 0.581 | B1

molecular target: T4, TIGIT on cells (human primary T cells, PBMC, NK cells; Promega TIGIT effector cells) (human); experiment: not given; remark: another data set of the same source

Row | EC50 of the mixture with nivolumab (both antibodies at the same concentration), NFAT reporter luminescence (PD-1+TIGIT+ effector cells + PD-L1+CD155 aAPC/CHO-K1 cells) [µg/mL] | Molecule
24 | 0.923 | B9

molecular target: T4, TIGIT on cells (human primary T cells, PBMC, NK cells; Promega TIGIT effector cells) (human); experiment: not given; remark: another data set of the same source

Row | EC50, NFAT reporter luminescence (TIGIT effector cells + CD155 aAPC/CHO-K1 cells; blocked ligand PVR/CD155) [µg/mL] | Molecule
25 | 1.24 | MBSA43 control (antibody)
26 | 3.74 | B9

— patent US20250064909A1 (MEDIMABBIO, published 2025)
